Results published in the nanobody polyreactivity screen of Harvey et al. (2022).

Assay: yeast display, Sf9 membrane polyspecificity reagent, FACS + sequencing; frameworks hold sequencing errors
In short: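 Galactose-induced (36–48 hours) yeast carrying a synthetic nanobody display library were exposed to 10% biotinylated, detergent-solubilized Sf9 membrane reagent at 4 °C for 1 hour. FACS followed streptavidin microbead enrichment, using low and high (top ~1%) gates for expression (anti-HA) and reagent binding (streptavidin). Colony PCR, MiSeq 2 × 250 sequencing and CDR-length filtering followed. Labels for polyreactivity reflect the gate of origin.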

| Sequence | polyreactivity (PSR sort gate) |
| --- | --- |
| QVQLVESGGGLVQAGGSLRLSCAASGFTFERNAMGWYRQAPGKERELVATINGSSDSTYYSDSVKGRFTISRDNAKNTVYLQMNSLKPEDTAVYYCNADSITEGNSRYSHFDYWGQGTQVTVSS | low polyreactivity |
| QVQLVESGGGLVQAGGSLRLSCAASGSIFRPNAMGWYRQPPGKERELVALITRGGSTNYADSVKGRFTISRDNAKNTVYLQMNSLKPEDTAVYYCAVDLWYPPVWVRVSEFDYWGQGTQVTVSS | low polyreactivity |
| QVQLVESGGGLVQAGGSLRLSCAASGSIFGRNAMGWYRQAPGKERELVAAITWRTGSTFYADSVKGRFTISRDNAKNTVYLQMNCLKPEDTAVYYCNAAGPAYSYYHWLWGDYNSWRQGTQVTVSS | low polyreactivity |
| QVQLVESGGGLVQAGGSLRLSCAASGINFRTYAMGWYRQAPGKERELVAAINSDGSTYYADSVKGRFTISRDNAKITVYLQMNSLKPEDNAVYYCAAVVWRIHAYYWAVDGWYYYWGQGTQVTVSS | high polyreactivity |
| QVQLVESGGGLVQAGGSLRLSCAASGFTFRTNTMGWYRQAPGKERELVAAITYRGGRTYADSVKGRFTISRDNAKNTVYLQMNSLKPEDTAVYYCAARHYRGTAVDYWGQGTQVTVSS | high polyreactivity |
| QVQLVESGGGLVQAGGSLRLSCAASGRIFYLYAMGWYRQAPGKERELVAAITWSGGSTYYADSVKGRFTISRDNAKNTVYLQMNSLKPEDTAVYYCARDDAYSDFDYDYWGQGTQVTVSS | low polyreactivity |
| QVQLVESGGGLVQAGGSLRLSCAASGSIFGRYAMGWYRQAPGKERELVAAIDGGGSTNYADSVKGRFTISRDNAKNTVYVQMNSLKPEDTAVYYCATEAKAYRYYYRTRHYYYWGQGTQVTVSS | low polyreactivity |
| QVQLVESGGGLVQAGGSLRLSCAASGSIFYGNAMGWYRQAPGKERELVAAISYRGVRTYYADSVKGRFTISRDNAKNTVYLQMNSLKPEDTAVYYCAATQGYRREYDYWGQGTQVTVSS | high polyreactivity |
| QVQLQESGGRLVQADGSLRLSCAASGSIFGYYYMGWYRQAPGKDRELVATINICGITNYADSVKGRFTISRDNAKNTVYLQMNSLKPDDTAVYYCAADEYAQRDLGYWGQGTQVTVSS | low polyreactivity |
| QVQLVESGGGLVQAGGSLRLSCAATGSIFRWNTMGWYRPAPGKERELVAVITWSGDSTYYADSVKGRFTISRDNAKNTVYLQMNSLKPEDTAVYYCAVDVVTSYYELTGSFNYWGQGTQVTVSS | low polyreactivity |
| QVQLVESGAGLVQAGGSLRLSCAASVSTLDLYAMGWYRQAPGKERELVAYISWSGGSTYYADSVKGRFTISRDNAKNTVYLQMNSLKPEDTAVYYCAAGNITPYRYYHGYYQSIYDYWGQGTQVTVSS | low polyreactivity |
| QVQLVESGGCLVQAGGSLRLSGAASGRIFGRNAMGWYRQAPGKERELVAAINSGVSTYYADSVKGRFTIARDNAKNTVYLQMNSLKPEDTAVYYSATDTDYYLLYLYYYWGQGTQVTVSS | low polyreactivity |
| QVQLVESGGGLVQAGGSLRLSCAASGSTFYYNAMGWYRQAPGKERELVADISWRGGITYYADSVKGRFTISRDNAKNTVYLQMNSLKPEDTAVYYCAADIYPDWIYLLYGYWGQGTQVTVSS | low polyreactivity |
| QVQLVESGGGLVQAGGSLRLSCAASGLIFIAYAMGWYRQAPGKEREFVAAITWNGVSTYYADSVKGRFTISRDNAKNTVYLQMNSLKPEDTAVYYCNADYVFSPWAYEYWGQGTQVTVSS | high polyreactivity |
| QVQLVESGGGLVQAGGSLRLSCAASGRTFLWNAMGWYRQAPGKERELVAAITSGGRTTYADSVKGRFTISRDNAKNTVYLQMNSLKPEDTAVYYCAAVSANQDFDYWGQGTQVTVSS | high polyreactivity |
| QVQLVESGGGLVQAGGSLSISCAASGLTFSYYAMGWYRQAPGKERELGAAIAGRTGRPYYADSVKGRFTISRDNAKNTVYLQMNSLKPEDTAVFYSAAGYTFSRYDDDYWGQGTQVTVSS | low polyreactivity |

| Sequence | polyreactivity (PSR sort gate) |
| --- | --- |
| QVQLVESGGGLDQAGGSLPLSCAASGSIFYVYTMGTYRQAPGKERELVAAISFRSGSTYYADSVKGRFTISRDNAKNTVYLPMNSLKPEDTAVYYCAKPIPRGRNQLFNYWGQGTEVTVSS | high polyreactivity |
| QVQLVESGGGLVQAGGSLRLSCAASGSTFGFNAMGWYRQAPGKERELLPLFWSGGSTYYADSVKGRFTISRDNAKNTVYLQMNSLKPEDTAVYYCNKDSPPITRYDYWGQGTQVTVSS | low polyreactivity |
| QVQLVESGGGLVQAGGSLRLSCAASGSIFVTNAMGWYRQAPGKERELVAAISGGADSTYADSVKGRFTISRDNAKNTVYLQMNSLKPEDTAVYYCAAKVRGWHYYYCGQGTQVTVSS | low polyreactivity |
| QVQLLESGGGLFQAGGSLRLSCAASGYTFSRNAMGWYRTAPGKERELVAANTGSGGSTYYADSVKGRFTISRDNAQNTVYYQMNSLKPEDTAVYYCATEVKRGYVGFDYWGQGTQVTVSS | low polyreactivity |
| QVQLVESGGGLVQAGGSLRLSCAASGRTFSYYAMGWYRQAPGKERELVAAITSRGSSTYYADSVKGRFTISRDNAKNTVYLQMNSLKPEDTAVYYCAKVRPYLDTNEYYYWGQGTQVTVSS | high polyreactivity |
| QVQLVESVGGLVEAGGSLRLSCASSGFISSHYAMGWYRQAPGKESELVAAITSGGSTYYADSVKGRFTISRDNAKNTVYLQMNSLKPEDTAVYYCAAYYRRWPRRYDYWGQGTQVTVSS | high polyreactivity |
| QVQLVESGGGLVQAGGSLRLSCAASGLIFRYYAMGWYRQATGKEREFVAAITWRTGSTYYADSVKGRFTISRDNAKNTVYLQMNSLKPEDTAVYYCAARGGRRYDYWGQGTQVTVSS | high polyreactivity |
| QVQLVESGGGLVQAGGSLRLSCAASGLTFWYYAMGWYRQAPGKERELVAAISFSGGRTYYADSVKGRFTISRDNAKYTVYLQMNSLKPEDTAVYYCNKATWYPFWYAPSYDYWGQGTQVTVSS | high polyreactivity |
| QVQLVESGGGLVQAGGSLRLTCAASGSIFYYNAKGWYRQAPAKERELVATITQTGGSTYYADSVKARFTISRDNAKNTVYLQMNSLKPEDTAVYYCASDYFPYEYDYWGQGTQVTVSS | low polyreactivity |
| QVQLVESGGGLVQAGGSLRLSCAASGRTFATYSMGRYIQAPGKERELVAAISRSGSTTYYADSVKGRFTISRDNAKNTVYLQMNSLKPEDTAVYYCNAKFRKADYDYWGQGTQVTVSS | high polyreactivity |
| QLQLVESGGGLVQAGGSLRLSCAASGSTFREYAMGWYRQAPGKERELVAAISSGDSTNYADSVKGRFTISRDNAKNTVYLQMNSLKPEDTSVYYCAADAQGAAAVQNDYWGQGTQVTVSS | low polyreactivity |
| QVQLVESGGGLVQAGGSLRLSCAPSGSTFQYNAMGWYRQAPGKEREFVAAISWRGGNTYYADSVKGRFTISRDNAKNTVYLQMNSLKPEDTAVYYCAAGRQRYAFKYYYWGQGTQVTVSS | high polyreactivity |
| QVQLVESGGGLVQAGGSLRLSCAASGSIFTSYVMGWYRQAPGKERELVAAINSGGRTYYADSVKGRFTISRDNAKNTVYLQMNSLKPEDTAVYYCATDLLYYQYYSEYDYWGQGTQVTVSS | high polyreactivity |
| QVQHVESGVGLVQAGGSLRLSSAASGRTFSDNAMGWYRQAPGNERELVAAISRSGGRTYYADSVKGRFTISRDNAKNTVYLQMNSLKPEDTAVYYCAAAPSVSGTRLYEYWGQGTQVTVSS | high polyreactivity |
| QVQLVESGGALVQAGGSLRLSCAASGRIFGVNTMGWYRQAPGKERELVDAISAGGGSTYYADSVKGRFTISRDLAKNTVYLQMNSLKPEDTAVYYCNVLTLNYRSTSRRKEYDYWGQGTQVTVSS | high polyreactivity |
